Measurements from article PMC3660568.

How the values were obtained:
[1] = target: anti-HER2 IgG1 heavy chain (biosimilar Herceptin); assay: non-reducing SDS-PAGE with western blot; crude supernatant of stably transfected CHO DG44 pools at the end of culture, non-reducing conditions; detected with anti-human IgG Fc and anti-human kappa LC antibodies; species assigned by molecular weight
[2] = target: anti-HER2 IgG1 light chain (biosimilar Herceptin); assay: as above

Row | stoichiometry N [1] | stoichiometry N [2] | Substance
1 | 2 | – | anti-HER2 IgG1 heavy chain (biosimilar Herceptin)
2 | – | 2 | anti-HER2 IgG1 light chain (biosimilar Herceptin)
